Target: mCherry-RAB28 (UniProt Q99KL7 1-221)
Test: co-IP

B1: FLAG-CFAP418 (natural protein)
chain: MAKDLDELLDEVETKFCRLDPLRLDLGERPKGDGGGGSHSGDRNGAQEKETLRSTETFKKEDDLDSLINEIFEEPDFDRKSFQKFKSKSSSNTCVRAPMQGVSKSCSPVYLSGSAIPCGIGTNTSQRACDRLRCVACDFRIVSYNDYMWDKSCDYLFFRNNMPEFHKLKTKLIEKKGARAYACQCSWRTVEELTDLQTDHQLRWVCGKH
fraction of CFAP418 pulled down: ~0.1%

From publication doi:10.1101/2022.06.13.495990 (bioRxiv, 2022)
